# Measurements reported in CN108178799A (SHENZHEN INNOVA NANOBODI CO LTD, dated 2018).
# B1: 纳米抗体VHH-CA125-4C1 (VHH)
# VHH: ESGGGLVQAGGSLRLSCAASGNTFNINAMGWYRQAPGKQRELVATITSGGSTNYADSVKGRFTISRDNAKNTVFLQMNSLKPEDTAVYYCNAVQTRLPNSPDRYEYDYWGQGT
# notes: Alpaca VHH expressed from pMES4 in E. coli BL21(DE3) periplasm; not shown: residues and tag from the pMES4 vector (protein purified on Ni-NTA / IMAC)
# B2: 纳米抗体VHH-CA125-4H10 (VHH)
# VHH: ESGGGLVQPGGSLRLSCAASEFTLEHYAIGWFRQAPGKEREGVGCISSSQENTYVEDSAKGRFTISRDNVKNTVYLQMNSLKPEDTAVYYCAARRFGLCVISPGYFEVWGQGT
# notes: as for B1
# B3: 纳米抗体VHH-CA125-2H7 (VHH)
# VHH: ESGGGLVQAGGSLRLSCERSDAPHSPYTMGWFRQAPGKDREFVATITWSGGTTLYADSVKGRFTISRGIAKNTAYLQMNTLKPEDTAVYYCAVGLGGGAYREDHQYDYWGQGT
# notes: as for B1
# Biological target: T1, CA125抗原 (purified from ascites of ovarian cancer patients) (human (ascites of ovarian cancer …, UniProt Q8WXI7 1-14451))
# T1 construct: Natural shed antigen, heterogeneous fragments; also called CA125糖类抗原
# Test: SPR, Biacore T100, 1:1 binding fit
row,Kd [nM],Binder
1,0.635,B1
2,0.285,B2
3,0.718,B3
